From the supplement of paper PMC10567573

B1: ZNF263 (parent)
chain: VPGTQVGQGGKLWDPSVQSCKEGL
B2: TMEM175 (parent)
chain: ALLHQAETLQPSVWFGGREHVLMF

Variants of: B1
Test: protein stability index of a GFP-peptide fusion (GPS, HEK-293T) (PSI 1-6); higher = more stable
Conditions: c terminus: a fixed tail appended
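Also: lentivirally expressed fusions sorted by FACS into six bins by GFP to DsRed ratio, PSI derived from sequencing read proportions per bin multiplied by bin number.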

Protein stability index: each site, then its substitutions
C20: Q 4.6; T 4.25; R 4.04; W 3.08; Y 3.52; S 4.31; V 4.36
G23: S 3.98; T 3.96; N 4.34; W 3.12; K 4.35; D 4.36; Q 3.51; R 4.34; F 2.69; A 3.89; P 4.32; H 3.64; L 3.62; E 4.4; C 3.59; Y 2.96; M 3.88; V 4.6; I 3.46
K21: N 4.16; R 4.04; D 4.79; V 3.89; Q 4.29; W 3.52; G 3.99; S 3.72; F 3.27; Y 3.4; L 3.69; H 4.05; E 4.78; C 4.64; T 5.17; A 3.91; M 3.92
L24: E 5.18; I 4.22; F 4.11; S 4.99; K 4.8; W 4.32; R 4.92; C 3.9; H 4.27; Q 5.03; V 4.35; G 4.49; Y 3.73; N 4.76; M 4.09; D 5.51; P 4.79; A 4.69; T 4.26
E22: R 4.05; N 3.64; C 3.42; K 4.49; A 3.06; P 3.46; G 4.34; S 3.95; M 3.13; F 2.58; I 3.23; D 4.25; Y 3.07; Q 3.84; H 3.98; V 3.79; W 1.99; T 4.42; L 2.96

Variants of: B2
Test: as above
Conditions: c terminus: a fixed tail appended

Protein stability index, by site and new letter:
A6: Q 1.87; H 2.17; D 2.55; T 1.83; Y 2.91; C 3.75; F 3.21; K 1.68; P 2.43; S 1.68; E 1.54
H4: C 3.01; S 1.99; Q 1.73; A 1.9; K 1.52; Y 2.17; G 1.75; D 1.89; E 1.56; N 2.84; P 1.41; F 3.14; W 3.3
Q10: W 1.51; S 2.2; H 1.99; N 3.13; I 2.49; V 1.06; D 2.35; M 1.96; R 2.36; P 2.16
W14: H 2.31; N 1.3; I 2.22; Y 2.11; S 1.55; F 2.48; E 1.38; G 2.64; M 2.08; R 2.65; V 1.91; L 1.73; D 1.74; A 1.66; Q 2.24
V21: A 1.42; C 2.73
R18: A 2.59; C 3.1; L 3.03; E 1.76; S 1.15; D 1.93; M 2.03; T 2.46; V 1.44; W 3.12; N 3.11; P 1.71; G 2.08; K 3.39; I 3.13; H 2.17; Q 2.33; F 2.29
Q5: P 2.78; H 2.37; V 3.06; D 2.03; S 2.72; L 3.8; T 2.94; N 2.68; M 3.42; F 1.43; R 2.33; C 1.99; E 1.07
P11: Q 1.38; K 2.59; R 4.75; G 1.24; H 1.77; D 2.79; L 1.82; A 1.78
F15: S 1.57; D 2.29; Q 1.27; N 1.65; G 2.22; E 1.57; T 1.85; H 2.12; C 2.5; R 2.02; A 1.88; M 1.82; Y 2.4
G17: K 1.66; V 2.62; A 3.03; N 2.51; R 3.53; I 2.68; E 1; T 2.68; P 1.05; W 1.67; H 2.45; D 1.27; Y 1.58; Q 1.4
L9: N 1.97; S 1.36; W 1.7; P 2.11; F 2.49; E 1.16; A 2.42; Q 3.27; C 3.64; R 2.19; G 2.85
H20: Q 1.44; T 3.65; I 2.97; R 4.2; E 1.6; P 3.07; N 2.48; D 1.29; M 3.07; S 2.21; G 1.74
L3: C 2.26; V 1.31; P 1.61; T 2.37; R 1.62; Y 3.46; K 1.71; H 1.57; Q 1.54; D 1.87; E 1.94; A 1.76; S 2.25; G 2.83; N 1.04
T8: F 3.68; D 1.83; E 2.03; W 1.69; L 4.17; N 1.63; R 1.26; Y 2.91; K 3.25; S 1.65; V 1.01; C 2.94; H 2.95
L2: T 1.53; E 1.93; Q 1.42; H 1.48; G 1.2; V 1.3; D 2.01; I 3.26; S 2.83; A 2.96; P 1.87; M 1.93; N 1.06; C 3.82
E7: N 1.88; M 3.19; K 3.58; G 3.88; W 3.4; Q 2.71; P 1.96; Y 1.78; D 1; F 2.64; H 3; S 2.22
E19: Y 1.81; H 2.74; P 2.37; C 3.88; N 1.42; F 1.97; L 2.74; W 2.92; A 2.27; S 2.2
S12: V 3.21; H 1.15; N 1; E 2.31; Q 1.82; P 4.3; T 2.65; W 2.82; M 1.75; I 3.85
G16: M 2.69; K 2.17; D 2.04; H 2.1; P 1.14; S 2.06; T 1.47; N 2.41; Y 3.05; C 2.98; L 2.28
A1: L 2.58; D 1.48; Y 2.71; Q 2.96; P 1.69; I 3.59; T 2.38; E 1.02; H 2.14; R 1.81; K 2.35; G 2.95; C 1.71; F 2.59
V13: L 2.59; D 2.16; M 2.46; R 2.02; C 3.13; H 2.22; E 1.86; P 2.16; I 2.25; W 2.36; A 3.02; Q 3.1; Y 1.69; N 2.28; S 2.73
